Results: the supplement of paper PMC10567573

B1: PTPLAD1 (parent)
chain: YSFYMLTCIDMDWKVLTWLRYTLW

Variants of: B1
Test: protein stability index of a GFP-peptide fusion (GPS, HEK-293T) (PSI 1-6); higher = more stable
Details: c terminus: a fixed tail appended
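Further: lentivirally expressed fusions sorted by FACS into six bins by GFP to DsRed ratio, PSI derived from sequencing read proportions per bin multiplied by bin number.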

Protein stability index, by site and new letter:
V15: W 2.22; L 1.89; Q 2.69; Y 3.09; E 1.86; M 1.03
I9: D 2.78; A 2.07; R 2.45; P 2.05; M 2.6; Q 2.85; H 1.65
K14: H 2.97; N 3.02; D 2.16; P 3.03; W 2.45; A 2.96; R 2.34; T 3.16
M11: D 1.56; Y 3.68; I 2.67; N 1.86; H 1.6; A 3.31; L 3.18; K 3.05; V 2.87; C 3.43
D10: F 3.86; T 2.76; Q 3.51; L 1.38; A 3.85; V 3.62; E 2.65; R 3.09
T22: C 2.07; V 1.99; M 2.12; Y 2.26; N 2.27; H 2.85
W24: A 2.83; G 2.39; Y 2.72; H 3.02; K 1.37; R 2.04; N 2.55; C 2.42; M 3.14; P 2.58; E 2.77; F 2.24; I 3.4
M5: P 2.17; V 2.62; F 3.81; D 2.49; I 3.07; S 1.4; Q 2.64
L19: H 2.65; F 3.32; E 2.83; M 1.93; Q 3.25; N 3.55; D 4.18; R 2.4; Y 2.91; I 2.06
Y21: V 2.28; W 1.84; G 3.32; R 2.05; C 4.75
Y1: C 2.62; K 2.1; S 2.07; N 2.57; H 2.28; D 1.5; V 4.18; L 1.47; Q 3.61
F3: S 2.61; Y 3.36; K 1.69; Q 3.31; T 1.68; H 1.93; M 3.14; D 2; C 2.18
W18: I 3.65; H 4.4; V 2.83; M 1.84; T 3.35; D 1.68; Q 2.11; A 2.61
L6: F 2.33; Y 3.68; H 3.22; A 2.21; Q 1.31; N 2.48; T 2.85; P 2.45; D 2.56
C8: T 2.51; H 2.1; I 3.23; W 2.54; L 2.85; K 3.09; G 3.31; M 1.73; Q 3.01
T17: E 2.15; V 2.23; I 2.68; D 2.45; C 1.67; W 2.66
D12: T 1.91; Y 1.95; A 1.63; K 3.14; C 1.65; G 2.15; I 1.82; E 2.68; L 2.09; F 2.23; M 1.51
S2: M 2.26; R 2.84; H 2.1; W 2.13; Y 2.99; I 2.41; C 1.93; V 1.58; T 1.56
T7: G 1.4; K 2.49; Y 3.62; H 3.17; P 2.94; M 2.02; Q 3.88; A 2.65; D 2.73
R20: P 3.84; N 4.06; C 1.52; M 2.04; W 1.06; A 2.88; F 1.28; T 3.6
